From patent US8691772B2, “HSP60, HSP60 peptides and T cell vaccines for immunomodulation” (Yeda Research and Development Co. Ltd., priority 2005, dated 2014)

Assays:
human T cells = assay: T-cell migration assay towards SDF-1α, human T cells; format: cell-based; conditions: 1 hr pre-incubation
Source text: Human cells. […] Human umbilical cord vein endothelial cells (HUVEC) were isolated from umbilical cord veins and cultured as described (Ponomaryov et al., 2000). Primary cultures were serially passaged, and passages 2 and 3 were taken for experiments.
T-cell migration assay. Migration of ^51[Cr]-labeled human and mouse T cells through FN or endothelial cells to recombinant human SDF-1α was examined in 48-well Transwell chemotaxis apparatus (5-μm pore filters, 6.5-mm diameter; Corning, N.Y.), as previously described (Zanin-Zhorov et al., 2003b). For transendothelial migration assays, 2×10^4 cells of HUVEC were layered on the filters and grown in 10% FCS M199 for 2 days before the performance of each assay. Then, HUVEC were stimulated with TNF-α (50 ng/ml) for 24 hr and washed.

NF-κB = assay: Nuclear translocation of NF-κB in T cells; format: cell-based, human
Experimental: (§1) Western blot analysis of T-cell nuclear extracts. Purified T cells (5×10^6) were preincubated with different concentrations of HSP60 for the indicated periods of time (37° C. in a 7% CO2, humidified atmosphere). […] T cells were lysed in 10 mM HEPES, 1.5 mM MgCl2, 1 mM dithiothreitol (DTT), 1 mM PMSF, 0.5% Nonidet P-40. The lysates were incubated on ice for 10 min and centrifuged at 2000 rpm for 10 min at 4° C. The supernatants (cytoplasmic extracts) were transferred and the pellet (nuclei) was suspended in buffer containing 30 mM HEPES, 450 mM NaCl, 25% Glycerol, 0.5 mM EDTA, 6 mM DTT, 12 mM MgCl2 1 mM PMSF, 10 μg/ml leupeptin, 10 μg/ml pepstatin, 1% phosphatase inhibitor cocktail, and the suspension was incubated on ice for 30 min. The lysates were cleared by centrifugation (30 min, 14×10^3 rpm, 4° C.), and the resulting supernatants analyzed for protein content. For NFATp analysis nuclear extracts were prepared with a NE-PER Nuclear and Cytoplasmic Extraction reagent (Pierce, Rockford, Ill.) according to the manufacturer's protocol. Sample buffer was then added and, after boiling, the samples, containing equal amounts of proteins, were separated on 10% SDS-PAGE gel and transferred to nitrocellulose membranes. The membranes were blocked with TBST buffer containing low-fat milk (5%), Tris pH 7.5 (20 mM), NaCl (135 mM) and Tween 20 (0.1%), and probed with the following mAb in the same buffer: anti-NF-κb (diluted 1:1000), anti-total (t) ERK (diluted 1:20,000), anti-NFATp (diluted 1:500), anti T-bet (diluted 1:1000), anti-GATA-3 (diluted 1:1000), anti-Lamin B (diluted 1:1000). Immunoreactive protein bands were visualized using labeled secondary antibodies and the enhanced ECL system.

ERK, Pyk2, AKT, MLC = assay: Western blotting of T-cell lysates (phosphorylation) and cell morphology; format: cell-based, human
Experimental: (§2) Western blotting of T-cell lysates. T cells were incubated (24 hr, 37° C.) in starvation medium (RPMI medium without serum). Aliquots (5×10^6/sample) of the starved cells were preincubated (for various intervals) with different concentrations of HSP60 prior to exposure to SDF-1α (100 ng/ml, 10 min, 37° C., tissue culture conditions). These reactions were terminated by freezing the plates (−70° C., 10 min). The plates were thawed, and the cells solubilized by incubating (60 min, 4° C.) in lysis buffer [EDTA (0.5 mM), NaCL (150 mM), NaF (10 nM), Tris pH 7.5 (25 mM), Triton X-100 (1%), PMSF (200 pg/ml), and phosphatase inhibitor cocktail (1%)]. Lysates were cleared by centrifugation (30 min, 14×10^3 rpm, 4° C.), and the resulting supernatants analyzed for protein content. Sample buffer was added, the samples were boiled, and equal amounts of proteins were separated by 10% SDS-PAGE and transferred to nitrocellulose membranes. The membranes were blocked with TBST buffer [Tris pH 7.5 (20 mM), NaCl (135 mM) and Tween 20 (0.1%)] containing low-fat milk (5%), and probed with the following mAb in the same buffer: anti-phosphorylated (p) ERK (0.2 μg/ml), anti-total (t) ERK (diluted 1:20,000), anti-pPyk2 (1.5 μg/ml), anti-tPyk2 (0.2 μg/ml), anti-pAKT (diluted 1:1000), anti-tAKT (diluted 1:1000), anti-pMLC (diluted 1:250), and anti-tMLC (diluted 1:1000), anti-pSTAT3 (diluted 1:250), and anti-STAT3 (diluted 1:500). Immunoreactive protein bands were visualized using a horseradish peroxidase-conjugated goat anti-mouse Ab and the enhanced ECL system. Phosphorylation levels of the 3-5 independent experiments were estimated by densitometry, and an average percentage of phosphorylation±SD was calculated as OD of pERK/tERK, or pPyk2/tPyk2, or pAKT/tAKT, pMLC/tMLC, or pSTAT3/tSTAT3×100%.
Cell morphology. T cells (3×10^6 cells/ml) were seeded in flat-bottom, 24-well plates in 500 μl of RPMI on coverslips coated with FN (25 μg/ml). Some T cells were pretreated (1 hr, 37° C., in a 7.5% CO2 humidified atmosphere) with anti-TLRs mAb (20 μg/ml), and then with HSP60 (1 hr). After which, SDF-1α (200 ng/ml) was added, and the cells allowed to adhere (30 min, 37° C., in a 7.5% CO2 humidified atmosphere). The cells were then fixed in 3.7% paraformaldehyde and permeabilized (5 min, room temperature) with 0.5% TritonX-100. For actin visualization, cells were stained with rhodamine-labeled phalloidin (diluted 1/100), and examined with a laser-scanning confocal microscope (LSM510, Zeiss).

NFATp = NFATp activation in T cells; format: cell-based, human
Experimental: as §1

SOCS3 = SOCS3 expression in mouse lymphocytes / T cells (immunoblot); format: cell-based; conditions: for SOCS3 expression: 1 ng/ml, 1 hr
Source text: Mice and mouse T cells. Female C57BL/6J were obtained from Harlan Olac (Bicester, U.K.). TLR2-knockout mice on the C57BL/6J background were kindly provided by Dr. S. Akira (Osaka University, Osaka, Japan). CD3^+ T cells were isolated by negative selection with anti-mouse antibody cocktail (Pan T cell kit; Miltenyi Biotec; CITY Germany). The labeled cells were then passed through separation columns (MidiMACS columns, Miltenyi Biotec). The purified cells (>97% T cells) were untreated or treated with HSP60 as described. Similarly, T cells were purified from the lymph nodes of BALB/c mice (females, 1.5 months of age).
as §2, with “The membranes were blocked with TBST buffer [Tris pH 7.5 (20 mM), NaCl (135 mM) and Tween 20 (0.1%)] containing low-fat milk (5%), and probed with the following mAb in the same buffer: anti-phosphorylated (p) ERK (0.2 μg/ml), anti-total (t) ERK (diluted 1:20,000), anti-pPyk2 (1.5 μg/ml), anti-tPyk2 (0.2 μg/ml), anti-pAKT (diluted 1:1000), anti-tAKT (diluted 1:1000), anti-pMLC (diluted 1:250), and anti-tMLC (diluted 1:1000), anti-pSTAT3 (diluted 1:250), and anti-STAT3 (diluted 1:500). Immunoreactive protein bands were visualized using a horseradish peroxidase-conjugated goat anti-mouse Ab and the enhanced ECL system.” left out

[1] = human T cells, SDF-1α 100 ng/ml, 10 min

B1: HSP60: recombinant human heat shock protein 60 (StressGen Biotechnologies) (protein)
chain: AKDVKFGADARALMLQGVDLLADAVAVTMGPKGRTVIIEQSWGSPKVTKDGVTVAKSIDLKDKYKNIGAKLVQDVANNTNEEAGDGTTTATVLARSIAKEGFEKISKGANPVEIRRGVMLAVDAVIAELKKQSKPVTTPEEIAQVATISANGDKEIGNIISDAMKKVGRKGVITVKDGKTLNDELEIIEGMKFDRGYISPYFINTSKGQKCEFQDAYVLLSEKKISSIQSIVPALEIANAHRKPLVIIAEDVDGEALSTLVLNRLKVGLQVVAVKAPGFGDNRKNQLKDMAIATGGAVFGEEGLTLNLEDVQPHDLGKVGEVIVTKDDAMLLKGKGDKAQIEKRIQEIIEQLDVTTSEYEKEKLNERLAKLSDGVAVLKVGGTSDVEVNEKKDRVTDALNATRAAVEEGIVLGGGCALLRCIPALDSLTPANEDQKIGIEIIKRTLKIPAMTIAKNAGVEGSLIVEKIMQSSSEVGYDAMAGDFVNMVEKGIIDPTKVVRTALLDAAGVASLLTTAEVVVTEIPKEEKDPGMGAMGGMGGGMGGGMF
SDF-1α-induced T-cell chemotaxis through TNF-α-activated endothelial cells (human T cells): significant inhibition of T-cell chemotaxis toward SDF-1α | SDF-1α-induced T-cell chemotaxis through fibronectin (human T cells; various concentrations): significant inhibition of T-cell chemotaxis toward SDF-1α | time at which NF-κB inhibition was apparent (NF-κB; 1 ng/ml): 60 min | time of peak NF-κB inhibition (NF-κB; 1 ng/ml): 120 to 240 min | nuclear translocation of NF-κB without anti-CD3 (NF-κB; HSP60 alone): did not affect the nuclear translocation of NF-κB | concentrations of maximal effects on NF-κB (NF-κB; P<0.01): 1 ng/ml or 1 μg/ml | SDF-1α-induced polarized morphology (ERK, Pyk2, AKT, MLC; FN-coated coverslips, HSP60 1 μg/ml): inhibits | SDF-1α-induced phosphorylation of MLC (ERK, Pyk2, AKT, MLC; HSP60 1 hr then SDF-1α 100 ng/ml, 10 min): inhibits SDF-1α-induced phosphorylation of MLC | phosphorylation of MLC (ERK, Pyk2, AKT, MLC; HSP60 1 hr, no SDF-1α): induces phosphorylation of MLC | SDF-1α-induced AKT phosphorylation (ERK, Pyk2, AKT, MLC; [1]): inhibits | SDF-1α-induced ERK phosphorylation (ERK, Pyk2, AKT, MLC; [1]): inhibits | SDF-1α-induced Pyk2 phosphorylation (ERK, Pyk2, AKT, MLC; [1]): inhibits | time at which NFATp inhibition was apparent (NFATp; 1 ng/ml): 60 min | time of peak NFATp inhibition (NFATp; 1 ng/ml): 120 to 240 min | anti-CD3-induced activation and de-phosphorylation of NFATp (NFATp; 1 ng/ml pre-treatment): significant down-regulation of their activation and de-phosphorylation of NFATp | NFATp phosphorylation in the absence of anti-CD3 (NFATp; HSP60 alone): did not affect NFATp phosphorylation | expression of SOCS3 (SOCS3; BALB/c lymph node cells): induced the expression of SOCS3 in BALB/c lymph node cells | SOCS3 expression (SOCS3; T cells from TLR2-knockout mice): SOCS3 expression remained at the low levels of untreated cells | SOCS3 expression (SOCS3; wild type C57BL/6J-derived T cells): induced SOCS3 expression at levels similar to those induced by HSP60 in human T cells
